Measured values reported in article PMC9482650, “Quantitative fragmentomics allow affinity mapping of interactomes” (Nature Communications, 2022).

T1: GRIP1_2, Q9Y3R0
T1 sequence (Q9Y3R0 145-248, limits assumed, looked up): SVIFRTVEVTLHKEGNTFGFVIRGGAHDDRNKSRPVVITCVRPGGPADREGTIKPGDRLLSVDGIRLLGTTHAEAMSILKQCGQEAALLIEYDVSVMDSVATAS

T2: TJP3_3, O95049
T2 sequence (O95049 375-456, limits assumed, looked up): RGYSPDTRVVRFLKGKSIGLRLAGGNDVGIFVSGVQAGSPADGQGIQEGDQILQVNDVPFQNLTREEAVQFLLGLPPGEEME

T3: PDZD2_2, O15018
T3 sequence (O15018 329-429, limits assumed, looked up): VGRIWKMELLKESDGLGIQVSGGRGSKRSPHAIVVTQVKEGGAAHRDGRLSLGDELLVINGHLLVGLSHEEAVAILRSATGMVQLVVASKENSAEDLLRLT

T4: NHERF3_3, Q5T2W1
T4 sequence (Q5T2W1 238-333, limits assumed, looked up): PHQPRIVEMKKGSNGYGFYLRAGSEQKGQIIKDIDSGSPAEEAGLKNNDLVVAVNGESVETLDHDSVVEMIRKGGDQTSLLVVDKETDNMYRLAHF

T5: SIPA1L2, Q9P2F8
T5 sequence (Q9P2F8 945-1036, limits assumed, looked up): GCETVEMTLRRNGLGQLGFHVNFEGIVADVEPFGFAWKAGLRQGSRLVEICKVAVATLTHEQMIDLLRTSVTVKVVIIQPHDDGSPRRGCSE

T6: CARD11, Q9BXL7
T6 sequence (Q9BXL7 662-765, limits assumed, looked up): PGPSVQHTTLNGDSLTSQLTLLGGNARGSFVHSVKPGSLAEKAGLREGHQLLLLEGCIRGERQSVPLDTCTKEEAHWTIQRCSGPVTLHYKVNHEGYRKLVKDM

T7: HTRA4, P83105
T7 sequence (P83105 378-476, limits assumed, looked up): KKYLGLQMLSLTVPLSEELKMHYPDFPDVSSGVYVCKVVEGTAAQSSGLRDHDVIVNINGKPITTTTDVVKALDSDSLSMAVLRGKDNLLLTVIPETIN

T8: SNTA1, Q13424
T8 sequence (Q13424 82-180, limits assumed, looked up): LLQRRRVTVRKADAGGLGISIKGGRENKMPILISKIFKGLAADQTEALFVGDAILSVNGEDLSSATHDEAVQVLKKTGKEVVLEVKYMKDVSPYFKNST

T9: SNTG1, Q9NSN8
T9 sequence (Q9NSN8 52-150, limits assumed, looked up): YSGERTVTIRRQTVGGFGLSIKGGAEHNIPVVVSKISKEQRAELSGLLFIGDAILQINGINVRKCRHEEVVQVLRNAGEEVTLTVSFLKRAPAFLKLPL

T10: FRMPD1, Q5SYB0
T10 sequence (Q5SYB0 52-145, limits assumed, looked up): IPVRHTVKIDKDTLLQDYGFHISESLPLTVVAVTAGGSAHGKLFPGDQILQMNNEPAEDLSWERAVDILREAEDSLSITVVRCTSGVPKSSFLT

T11: NHERF3_4, Q5T2W1
T11 sequence (Q5T2W1 373-468, limits assumed, looked up): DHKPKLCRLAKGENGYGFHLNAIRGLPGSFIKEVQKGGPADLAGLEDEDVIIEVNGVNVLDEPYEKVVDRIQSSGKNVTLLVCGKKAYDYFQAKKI


Columns and labels:
Assay in all cases: holdup assay
Design in all cases: key: below the threshold = too weak to quantify, mostly under pKd 3.1 to 4
Settings in all cases: plain residues with an end cap or a label only (N-terminal biotin on a linker: ado-ado)
[1] = molecular target: LNX1_3, Q8TBB1
[2] = molecular target: PICK1, Q9NRD5
[3] = molecular target: HTRA1, Q92743
[4] = molecular target: GRIP2_4, Q9C0E4
[5] = molecular target: PTPN3, P26045
[6] = molecular target: NHERF4_2, Q86UT5
[7] = molecular target: T1, GRIP1_2, Q9Y3R0
[8] = molecular target: DLG1_3, Q12959
[9] = molecular target: T2, TJP3_3, O95049
[10] = molecular target: T3, PDZD2_2, O15018
[11] = molecular target: T4, NHERF3_3, Q5T2W1
[12] = molecular target: T5, SIPA1L2, Q9P2F8
[13] = molecular target: GIPC2, Q8TF65
[14] = molecular target: Inadl_6, Q8NI35
[15] = molecular target: T6, CARD11, Q9BXL7
[16] = molecular target: SCRIB_2, Q14160
[17] = molecular target: T7, HTRA4, P83105
[18] = molecular target: MAGI2_4, Q86UL8
[19] = molecular target: T8, SNTA1, Q13424
[20] = molecular target: LDB3, O75112
[21] = molecular target: T9, SNTG1, Q9NSN8
[22] = molecular target: T10, FRMPD1, Q5SYB0
[23] = molecular target: ARHGEF12, Q9NZN5-2
[24] = molecular target: MAGI2_5, Q86UL8
[25] = molecular target: Inadl_5, Q8NI35
[26] = molecular target: MAGI2_3, Q86UL8
[27] = molecular target: T11, NHERF3_4, Q5T2W1

LNX1_3, Q8TBB1, sequence (Q8TBB1 500-596): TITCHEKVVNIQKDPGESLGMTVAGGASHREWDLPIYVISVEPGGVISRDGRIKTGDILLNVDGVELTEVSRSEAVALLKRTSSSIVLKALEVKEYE
MAGI2_4, Q86UL8, sequence (Q86UL8 772-865): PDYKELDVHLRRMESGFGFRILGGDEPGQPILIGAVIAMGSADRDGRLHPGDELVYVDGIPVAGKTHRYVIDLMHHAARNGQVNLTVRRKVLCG
GIPC2, Q8TF65, sequence (Q8TF65 112-203): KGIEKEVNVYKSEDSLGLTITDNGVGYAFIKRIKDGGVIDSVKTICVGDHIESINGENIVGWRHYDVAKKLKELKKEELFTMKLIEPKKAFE
GRIP2_4, Q9C0E4, sequence (Q9C0E4 446-548): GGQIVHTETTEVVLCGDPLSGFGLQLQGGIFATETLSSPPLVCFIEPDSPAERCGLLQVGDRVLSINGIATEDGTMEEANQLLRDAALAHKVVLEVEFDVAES
MAGI2_3, Q86UL8, sequence (Q86UL8 600-682): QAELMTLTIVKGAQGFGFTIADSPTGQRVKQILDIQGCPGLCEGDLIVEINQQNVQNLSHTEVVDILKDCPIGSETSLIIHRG
Inadl_5, Q8NI35, sequence (Q8NI35 673-780): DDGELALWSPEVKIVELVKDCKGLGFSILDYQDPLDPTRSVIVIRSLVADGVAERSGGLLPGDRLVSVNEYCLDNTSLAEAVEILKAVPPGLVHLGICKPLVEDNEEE
PICK1, Q9NRD5, sequence (Q9NRD5 17-115): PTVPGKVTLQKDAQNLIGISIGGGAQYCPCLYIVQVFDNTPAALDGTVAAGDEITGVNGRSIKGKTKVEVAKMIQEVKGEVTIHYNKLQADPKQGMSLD
LDB3, O75112, sequence (O75112 1-94): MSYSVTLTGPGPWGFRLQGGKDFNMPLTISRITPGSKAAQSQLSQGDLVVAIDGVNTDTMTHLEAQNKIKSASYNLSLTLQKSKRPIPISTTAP
MAGI2_5, Q86UL8, sequence (Q86UL8 915-1017): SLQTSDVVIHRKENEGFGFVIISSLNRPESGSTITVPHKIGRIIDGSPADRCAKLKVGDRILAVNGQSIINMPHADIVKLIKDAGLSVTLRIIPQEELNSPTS
SCRIB_2, Q14160, sequence (Q14160 857-960): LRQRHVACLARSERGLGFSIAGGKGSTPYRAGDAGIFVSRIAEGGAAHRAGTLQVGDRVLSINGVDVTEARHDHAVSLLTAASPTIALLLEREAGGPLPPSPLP
HTRA1, Q92743, sequence (Q92743 360-477): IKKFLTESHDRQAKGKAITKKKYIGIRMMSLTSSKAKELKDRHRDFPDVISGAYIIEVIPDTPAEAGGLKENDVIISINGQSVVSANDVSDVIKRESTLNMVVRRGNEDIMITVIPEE
Inadl_6, Q8NI35, sequence (Q8NI35 1058-1167): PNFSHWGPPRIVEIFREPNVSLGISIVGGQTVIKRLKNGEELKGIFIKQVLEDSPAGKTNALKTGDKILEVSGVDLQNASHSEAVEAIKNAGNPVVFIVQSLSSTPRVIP
NHERF4_2, Q86UT5, sequence (Q86UT5 220-308): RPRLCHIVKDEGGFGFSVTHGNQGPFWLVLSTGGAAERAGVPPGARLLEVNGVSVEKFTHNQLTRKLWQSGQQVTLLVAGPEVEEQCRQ
PTPN3, P26045, sequence (P26045 505-587): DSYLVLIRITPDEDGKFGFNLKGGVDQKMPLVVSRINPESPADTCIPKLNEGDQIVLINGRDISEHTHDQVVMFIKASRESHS
DLG1_3, Q12959, sequence (Q12959 457-571): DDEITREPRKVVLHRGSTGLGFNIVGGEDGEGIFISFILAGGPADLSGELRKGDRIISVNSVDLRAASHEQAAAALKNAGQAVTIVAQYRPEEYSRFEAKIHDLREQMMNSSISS
ARHGEF12, Q9NZN5-2, sequence (Q9NZN5 other isoform, or with tags, fused parts or gaps): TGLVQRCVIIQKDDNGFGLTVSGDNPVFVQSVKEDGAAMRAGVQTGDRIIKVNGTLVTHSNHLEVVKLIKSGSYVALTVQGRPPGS

Binder | pKd [1] | pKd [2] | pKd [3] | pKd [4] | pKd [5] | pKd [6] | pKd [7] | pKd [8] | pKd [9] | pKd [10] | pKd [11] | pKd [12] | pKd [13] | pKd [14] | pKd [15] | pKd [16] | pKd [17] | pKd [18] | pKd [19] | pKd [20] | further results
YYKRPVQEWV [MMP24, Q9Y5R2] | below the threshold | below the threshold | 4.5 | below the threshold | 3.88 | below the threshold | below the threshold | below the threshold | 5 | 5.65 | below the threshold | below the threshold | below the threshold | 3.7 | below the threshold | below the threshold | 4.37 | 4.09 | below the threshold | below the threshold | pKd [21]: below the threshold; pKd [22]: below the threshold; pKd [23]: 3.62; pKd [24]: below the threshold; pKd [25]: 4.47; pKd [26]: below the threshold; pKd [27]: below the threshold
SAKVRTVTSV [RASL11B, Q9BPW5] | below the threshold | below the threshold | 3.95 | below the threshold | 4.6 | below the threshold | below the threshold | 4.54 | below the threshold | 4.25 | below the threshold | below the threshold | below the threshold | below the threshold | below the threshold | below the threshold | 4.06 | 4.19 | below the threshold | below the threshold | pKd [21]: 3.62; pKd [22]: below the threshold; pKd [23]: 4.68; pKd [24]: below the threshold; pKd [25]: below the threshold; pKd [26]: 4.25; pKd [27]: below the threshold
DTTVPESEDL [MYOZ2, Q9NPC6] | below the threshold | below the threshold | below the threshold | below the threshold | 4.25 | below the threshold | below the threshold | below the threshold | below the threshold | below the threshold | below the threshold | below the threshold | below the threshold | below the threshold | below the threshold | below the threshold | 3.8 | below the threshold | below the threshold | 5.26 | pKd [21]: below the threshold; pKd [22]: below the threshold; pKd [23]: below the threshold; pKd [24]: below the threshold; pKd [25]: below the threshold; pKd [26]: below the threshold; pKd [27]: below the threshold
SKSNFGSEPL [KIF17, Q9P2E2] | below the threshold | below the threshold | below the threshold | below the threshold | 3.95 | below the threshold | below the threshold | below the threshold | below the threshold | below the threshold | below the threshold | below the threshold | below the threshold | below the threshold | below the threshold | below the threshold | below the threshold | below the threshold | below the threshold | below the threshold | pKd [21]: below the threshold; pKd [22]: below the threshold; pKd [23]: below the threshold; pKd [24]: below the threshold; pKd [25]: below the threshold; pKd [26]: below the threshold; pKd [27]: below the threshold
PDGQCTVTEV [RNF146, Q9NTX7] | below the threshold | below the threshold | 5.05 | below the threshold | 4.99 | 3.59 | below the threshold | below the threshold | below the threshold | 4.79 | below the threshold | below the threshold | 3.78 | 3.95 | below the threshold | 4.28 | 4.36 | 4.38 | 4.23 | below the threshold | pKd [21]: 4.68; pKd [22]: below the threshold; pKd [23]: 4.77; pKd [24]: 4.47; pKd [25]: below the threshold; pKd [26]: 3.94; pKd [27]: below the threshold
